Measurements: the nanobody polyreactivity screen of Harvey et al. (2022)

Test: yeast display, Sf9 membrane polyspecificity reagent, FACS + sequencing; frameworks hold sequencing errors
Outline: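 In a synthetic yeast display library (Saccharomyces cerevisiae BJ5465), nanobody expression was induced with galactose for 36–48 hours. FACS gates were set low and high (top ~1%) using anti-HA fluorescence for expression and streptavidin fluorescence for binding of the Sf9 membrane reagent. Each polyreactivity label is drawn from the gate of origin.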

Row | Sequence | polyreactivity (PSR sort gate)
1 | QVQLVESGGGLVQAGGSLRLSCAASGFTLSNNAMGWYRQAPGKERELVAGLTSGGDSTNYADSVKGRFTISRDNAKNTVYLQMNSLKREDTAVYDCAAQGGTNTPGVVESDYWGQGTQVTVSS | low polyreactivity
2 | QVQLVESGGGLVQAGGSLRLSCAASGFTLSRNAMGWYRQAPGKERELVAAISYSGARTYYADSVKGRFTISRDNAKNTVYLQMNRLKPEDTAVYYCAKVVPYPDYDYWGQGTQVTVSS | high polyreactivity
3 | QVQLVESGGGLVQAGGSLRLSCAASGFTLSYNVMGWYRQAPGKERELVAAISDSGGSTYYADSVKGRFTISRDNAKNTVYLQMNSLKPEDTAVYYCAAYYPTRYQYGTIWVAYNYWGQGTQVTVSS | low polyreactivity
4 | QVQLVESGGGLVQAGGSLRLSCAASGFTLTRKAMGWYRQAPGKERELVAAISRSGGSTYYADSVKGRFTISRDNAKNTVYLQMNSLKPEDTAVYYCNAGYGYGYPKYDYWGQGTQVTVSS | high polyreactivity
5 | QVQLVESGGGLVQAGGSLRLSCAASGFTLVNNAMGWYRQAPGKERELVAAISKRAGRTYYADSVKGRFTISRDNAKNTVYLQMNSLKPEDTAVYYCNAGKRVEYDYWGQGTQVTVSS | high polyreactivity
6 | QVQLVESGGGLVQAGGSLRLSCAASGFTLWLNAMGWYRQAPGKERELVAAITTSDDGTYYADSVKGRFTISRDTAKNTVYLQMNSLKPEDTAVYYCAADYYSVLYDYWGQGTQVTVSS | low polyreactivity
7 | QVQLVESGGGLVQAGGSLRLSCAASGFTLYVNAMGWYRHAPGKERELVAAISRGTTTYYADSVKGRFTISRDNAKNTVYLQMNSLKPEDTAVYYCAGETGHPYEEYDYWGQGTQVTVSS | high polyreactivity
8 | QVQLVESGGGLVQAGGSLRLSCAASGFTLYYNAMGWYRQAPGKERELVAAINIGDSTNYADSVKGRFTISRDNAKNTVYLQMNSLKPEDTAVYYCAAVLLPYGVFYTVAINVDYWGQGTQVTVSS | low polyreactivity
9 | QVQLVESGGGLVQAGGSLRLSCAASGFTLYYYAMGGYRQAPGKERELVAAISYSGGTTYYADSVKGRFTISRDNAKNTVYLLMYSLKPEDTAVYYCAAGFYSYSWYVKLAYGYWGQGIQVTVSS | low polyreactivity
10 | QVQLVESGGGLVQAGGSLRLSCAASGFTLYYYTMGWYRQAPGKERELVAAITSGGDTYYADSVKGRFTISRDNAKNTVYLQMNSLKPEDTAVYYCAAVDDDYSIVWYDYWGQGTQVTVSS | low polyreactivity
11 | QVQLVESGGGLVQAGGSLRLSCAASGFTQEDYTMGWYRQAPGQERELVARITSGGSTNYADSVKGRFTISRDNGKNTDYLQMNSLKADETAVYYCNARYAWINMDYWGQGTQVTVSS | low polyreactivity
12 | QVQLVESGGGLVQAGGSLRLSCAASGFTSAPYAMGWNRQAPGKERELVAAISSGDTTSYADSVKGRFTISRDNEKNTVYFQMNSLKPEDTAVYYCAAVYFNVIESYKTAGYDYWGQGTQVTVSS | low polyreactivity
13 | QVQLVESGGGLVQAGGSLRLSCAASGFTSGNYAMGWYRQAPGKERELVAAIDSDGSTYYADSVKGRFTISRDNAKNTVYLQMKSLKPEDTAVYYCNKDIKSATDSYHYEDDYWGQGTQVTVSS | low polyreactivity
14 | QVQLVESGGGLVQAGGSLRLSCAASGFTSPIYAMGWYRQAPGKERELVAVIDWSSGITYYADSVKGRFTISRDNAKNTVYLQMNSLKPEDTAVYYCAAEYRGRGWRYGYDYWGQGTQVTVSS | high polyreactivity
15 | QVQLVESGGGLVQAGGSLRLSCAASGFTSRNYAMGWYSQARGKARELVAVFSKSGTSTYYADSVKGRFTISRDHAKNTVYLQMTSLKPEDTAVYYCSADTGHLSNSMDYWGQGTQVTVSS | high polyreactivity
16 | QVQLVESGGGLVQAGGSLRLSCAASGFTSWDNDMGWYRQAPGKERELVAAMSRGGSTNYADSVKGRFTISRDNAKNTVYLQMNSLKPEDTAVYYCAAGSYAGFAVIGYYYWGQGTQVTVSS | low polyreactivity
17 | QVQLVESGGGLVQAGGSLRLSCAASGFTTSQYAMGWYRQAPGKERDLVAAITSSGSSTYYADSVKGRFTISRDNAKNTVYLQMNSLKPEDTAVYYFNTDAYHRYPGSVWYYYWGQGTQVTVSS | high polyreactivity
18 | QVQLVESGGGLVQAGGSLRLSCAASGFTVGLYAMGWYRQAPGKERELVAAISGGGSTNYADSVKGRFTISRDNAKNTVYLQMNSLKPEDTAVYYCNKAYHNVYYNWYLRYYSYDYWGQGTQVTGSS | low polyreactivity
19 | QVQLVESGGGLVQAGGSLRLSCAASGFTVGSNAMGWYRQAPGKERELVAAISRSSGRTYYADSVKGRFTISRDNAKNTVDLQMNSLKPEDTAVYYCAAQTRYRISLQYYYWGQGTQVTVSS | high polyreactivity
20 | QVQLVESGGGLVQAGGSLRLSCAASGFTVGYAMGWYRQAPGKEREFVAAITRGGGTRTSYADSVKGRFTISRDNAKNTVYLQMNSLKPEDTAVSYCAARRWWSPRTQYDYWGQGTQVTVSS | high polyreactivity
21 | QVQLVESGGGLVQAGGSLRLSCAASGFTVPGYAMGWYRQAPGNERELVAAINSSGGRTYYADSVKGRFTISRDTAKITVYFQMTSLKPEDTAVYYCAATRWYIRARYNYWGQGTQVTVSS | high polyreactivity
22 | QVQLVESGGGLVQAGGSLRLSCAASGFTYIDYAMGWYRQAPGKERELVAAITSRGGTTYYADSVKGRFTISRDNAKNTVYLLMNSLKPEDTAVYYCNAGSSFWVSRIGYDYWGQGTQVTVSS | high polyreactivity

Row | Sequence | polyreactivity (PSR sort gate)
23 | QVQLVESGGGLVQAGGSLRLSCAASGFTYIRYAMGWSRKATGKERQLVAAIRGTGTSTYFADSVKGRFTISRDNGKNTVYLQMNSLKPEETAVYYCNNVSGRSPYTRYDYWGQGTQVTVSS | low polyreactivity
24 | QVQLVESGGGLVQAGGSLRLSCAASGFTYNRYAMGWYRQAPGKERELVAGISWGGGSTYYADSVKGRFTISRDNAKNTVYLQMNSLKPEDTAVYYCAAGWQHYRRYGSYDYWGQGTQVTVSS | high polyreactivity
25 | QVQLVESGGGLVQAGGSLRLSCAASGFTYPGYAMGWYRQAPRKERELVASITDNGANTYYADSVKGRFTISRDNAKNTVYLQMNSLKPEDTAVYYCAADPGRVTRVGVRYYYWGQGTQVTVSS | high polyreactivity
26 | QVQLVESGGGLVQAGGSLRLSCAASGFTYRKYALGWYRQAPGKERELVAVINIVGSTYYADSVKGRFTISRDNAKNTVYLQMYSLTPEDTAVYYCAADWSYRLKYYWYGGFKYWGQGTQVTVSS | high polyreactivity
27 | QVQLVESGGGLVQAGGSLRLSCAASGFTYSRYAMGWYRQAPGKERELVAAIRLRDGITYYADSVKGRITISRDNAKNTVYLQMNRLKPEDTAVYYCNAVNRTPVSQLDYWGQGTQVTVSS | high polyreactivity
28 | QVQLVESGGGLVQAGGSLRLSCAASGFTYYAMGWYRQAPGKERELVAAITRGGSTYYADSVKGRFTISRDNAKNTVYLQMNSLKPEDTAVYYCAVLQRAARLGYNYWGQGTQVTVSS | high polyreactivity
29 | QVQLVESGGGLVQAGGSLRLSCAASGFTYYIYAMGWYRQAPGKERELVAAISRSAGITNYADSVKGRFTISRDNAKNTVYLQMNSLKAEDTAVYYCAAEVGYWGYQISGDYWGQGTQVTVSS | low polyreactivity
30 | QVQLVESGGGLVQAGGSLRLSCAASGFVWYTMGWYRQAPGKERELVADITYRGGSTYYADSVKGRFTISRDNAKNTVYLQMNSLKPEDTAVYYCAAKPHWYWRYEYWGQGTQVTVSS | high polyreactivity
31 | QVQLVESGGGLVQAGGSLRLSCAASGFYYGMGWYRQAPGKERELVAAISRGGSTYYADSVKGRFTISRDNAKNTVYLQMNSLKPEDTAVYYCAATYRSLYGSRMGYWGQGTQVTVSS | high polyreactivity
32 | QVQLVESGGGLVQAGGSLRLSCAASGFYYYVMVWYRQAPGKERELVAGITASGGSTYADSVKGRFTISRDNAMYTVYLQMNSLKPEDTAVYYCAAGFVGTNYTLHGFSYEYWGQGTQVTVSS | low polyreactivity
33 | QVQLVESGGGLVQAGGSLRLSCAASGGIFAPNAKGWYRQAPGKEREFVAAISTGGGSTRYADSVKGRFTISRDNAKYTVYLQMNSLKPEDTAVYYCAATRVGVRRMDYWGQGTQVTVSS | low polyreactivity
34 | QVQLVESGGGLVQAGGSLRLSCAASGGIFAPYAMGWYRTAPGKERELVAAISSSDGSTYYADSVKGRFTISRDNAQNTVYLHMNSLKTVDTAVYYCAADYREDYGYWGEGTQVTVSS | low polyreactivity
35 | QVQLVESGGGLVQAGGSLRLSCAASGGIFAQYAMGWYRQAPGKEREFVATISTSGGSTYYADSVKGRYTISRDNAKNTVYLQMNSLKPEDTAVYYCARYSYRGTNVRYDYWGQGTQVTVSS | high polyreactivity
36 | QVQLVESGGGLVQAGGSLRLSCAASGGIFARYAMGWYRQAPGKEREFVAAISFSGASTYYADSVKGRFTISRDNAKNTVYLQMNSLKPEDTAVYYCAAYWDAEGRRYTRLDYWGQGTQVTVSS | low polyreactivity
37 | QVQLVESGGGLVQAGGSLRLSCAASGGIFARYVKGWYRQAPGKERELVAAISLSGGSTYYADSVKGRFTISRDNAKKTVYLQMNSLNPEDTAVYYCAAIRKKRLTYDYWGQGTEVTVSS | high polyreactivity
38 | QVQLVESGGGLVQAGGSLRLSCAASGGIFAVNVMGWYRQAPGKERELVAAITSTGSTYYADSVKGRFTISRDNAKNTVYLQMNSLKPEDTAVYYCASDYVYYDSYDDTVFGYEYWGQGTQVTVSS | high polyreactivity
39 | QVQLVESGGGLVQAGGSLRLSCAASGGIFAYYVMGWYRQAPGKERELVASISSGGGTYYADSVKGRFTISRDNAKNTVYLQMNSLKPEDTAVYYCAARWLRYVYPDGHLFWYDYWGQGTQVTVSS | high polyreactivity
40 | QVQLVESGGGLVQAGGSLRLSCAASGGIFDDYAMGWYRQAPGKERELVAAISSSGGSTYYADSVKGRFTISRDNAKNTVYLQMNSLKPEDTAVYYCNADRRRRFGYWGQGTQVTVSS | high polyreactivity
41 | QVQLVESGGGLVQAGGSLRLSCAASGGIFDENAMGWYRQAPGKARELVAGITQRGASTNYADSVKGRFTISRDNAKNTVYLQMNSLKPEDTAVYYCDADVGTVISYEYWGQGTQVTVSS | low polyreactivity
42 | QVQLVESGGGLVQAGGSLRLSCAASGGIFFTYAMGWYRQAPGKERELVAGISWSDGSTYADSVKGRFTISRDNAKNTVYLQMNSLKPEDTAVYYCNKRIYDLFLSPAAGGYWGQGTQVTVSS | low polyreactivity
43 | QVQLVESGGGLVQAGGSLRLSCAASGGIFFYSAMGWYRQAPGTERELVAAISYSGGSTYYADSVKGRFTISRDIAKNTVYLQMISLKPEDTAVYYCAADVYSESKSGIYEYWGQGTQVTVSS | low polyreactivity
